Reference: publication PMC8136818

System: SmpO45 (Staphylococcus aureus plasmid pWBG745)
Assay: SPR
Conditions: SPR: 10 mM HEPES, 150-300 mM NaCl, 3 mM EDTA, 0.05% Tween 20, 1 uM protein (pH, temperature not given); EMSA: Li-Cor binding buffer, 0.5 ug/ul herring sperm …

Sequence | binding signal [% Rmax]
CCCCATAAAATATGGGGTCATATTTCCCTT / AAGGGAAATATGACCCCATATTTTATGGGGCCTACCCTACGTCCTCCTGC [OT45.10] | 30
GACACTATAGTTTATTGTGGGGTCACTTTA / TAAAGTGACCCCACAATAAACTATAGTGTCCCTACCCTACGTCCTCCTGC [OT45.3] | 30
TTTATTGTGGGGTCACTTTAAATTCTTTAA / TTAAAGAATTTAAAGTGACCCCACAATAAACCTACCCTACGTCCTCCTGC [OT45.4] | 30
